Test results published in paper PMC3429473, “The Weak Complex between RhoGAP Protein ARHGAP22 and Signal Regulatory Protein 14-3-3 Has 1∶2 Stoichiometry and a Single Peptide Binding Mode” (PLoS ONE, 2012).
Where two headings read alike, the source gives them in different places.

What was measured:
[1] = target: AG22 (1–422) S16D/S411D phosphomimic double mutant (human); assay: cross-linking; AG22 proteins (10 µM) and 14-3-3 (30 µM), alone or mixed, in 50 mM HEPES pH 8.6 with 3 mM BS3 at room temperature for 5 to 30 min; SDS-PAGE, Coomassie Blue
[2] = target: wild type AG22 (1–422) (human); assay: as above
AG22 (1–145) S16D = target: T1, AG22 (1–145) S16D (human); assay: as above; conditions: both partners purified
T1 chain: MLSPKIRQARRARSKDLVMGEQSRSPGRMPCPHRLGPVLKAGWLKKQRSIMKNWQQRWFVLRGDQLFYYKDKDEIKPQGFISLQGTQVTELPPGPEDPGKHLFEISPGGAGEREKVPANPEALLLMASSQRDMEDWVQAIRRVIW

[3] = target: the molecule itself; assay: as above
[4] = target: AG22 (1–422) S16D/S411D phosphomimic double mutant (human); assay: cross-linking + SEC; 1:2 mixture cross-linked with BS3 for 30 min in 50 mM Hepes pH 8.6, purified by gel filtration, then analytical Superdex S200 10/300GL in 25 mM HEPES pH 7.5, 150 mM NaCl, 2 mM β-ME
[5] = target: AG22 (1–422) S16D/S411D phosphomimic double mutant (human); assay: SAXS titration; AG22 (1–422) S16D/S411D at 26.5 µM (1.25 mg/mL) mixed with 14-3-3 dimer at molar ratios 0.5, 1.0, 1.5 and 2.0; about 1 h on ice; data fitted as linear combinations of the profiles of the two proteins and of the cross-linked complex; Kd counted on the 14-3-3 dimer
[6] = target: AG22 (1-422) S16D/S411D (human); assay: small-angle X-ray scattering (SAXS) titration; AG22 (1-422) S16D/S411D at 26.5 µM (1.25 mg/mL) pre-mixed with 14-3-3 at molar 14-3-3_(2):AG22 ratios of 0.5:1.0, 1.0:1.0, 1.5:1.0 and 2.0:1.0, about 1 hour on ice, measured at room temperature (295 K); scattering fitted as a linear combination of the profiles of 14-3-3_(2), AG22 and the cross-linked complex; Kd = (W_AG22 x W_14-3-3)/W_Complex for each titration point
[7] = target: AG22 (1-422) S16D/S411D (human); assay: as above; remark: listed apart in the source
[8] = target: AG22 (1-422) S16D/S411D (human); assay: as above; remark: listed apart in the source

B1: human 14-3-3 β (natural protein)
chain: MTMDKSELVQKAKLAEQAERYDDMAAAMKAVTEQGHELSNEERNLLSVAYKNVVGARRSSWRVISSIEQKTERNEKKQQMGKEYREKIEAELQDICNDVLELLDKYLIPNATQPESKVFYLKMKGDYFRYLSEVASGDNKQTTVSNSQQAYQEAFEISKKEMQPTHPIRLGLALNFSVFYYEILNSPEKACSLAKTAFDEAIAELDTLNEESYKDSTLIMQLLRDNLTLWTSENQGDEG
notes: human 14-3-3 β isoform, codon-optimized synthetic gene (GeneArt) in pET20b; calculated monomer mass 29.3 kDa; the printed monomer mass of 29.3 kDa would fit the whole protein with the tag; Dimer by cross-linking and SAXS; also called 14-3-3_(2); 14-3-3 β isoform; not shown: His6, C-terminal, kept
In the case of B1, the stoichiometry N (14-3-3 chains per AG22 molecule) [1] is reported as 2, the stoichiometry N (14-3-3 chains per AG22 molecule) [2] is reported as 2 and the “stoichiometry N” value (AG22 (1–145) S16D) is reported as 2 14-3-3 chains per AG22 molecule. For the same binder, the “stoichiometry N” value [3] was 2, the stoichiometry N (14-3-3 chains per AG22 molecule) [4] was 2 and the Kd [5] was 28 µM. The Kd [6] was 27.4 µM, the Kd ([6]; record 2) was 30.6 µM and the Kd [7] was 20.9 µM. For the same binder, the Kd [8] was 34.2 µM.
